The source of these data is FireProtDB.

“And” between values parts separate entries of the source, which are not always exact repeats. Equal entries are not always repeated.

The labels stand for the following.
B1: chitinase, Q54276 (parent)
chain: MSTRKAVIGYYFIPTNQINNYTETDTSVVPFPVSNITPAKAKQLTHINFSFLDINSNLECAWDPATNDAKARDVVNRLTALKAHNPSLRIMFSIGGWYYSNDLGVSHANYVNAVKTPASRAKFAQSCVRIMKDYGFDGVDIDWEYPQAAEVDGFIAALQEIRTLLNQQTITDGRQALPYQLTIAGAGGAFFLSRYYSKLAQIVAPLDYINLMTYDLAGPWEKVTNHQAALFGDAAGPTFYNALREANLGWSWEELTRAFPSPFSLTVDAAVQQHLMMEGVPSAKIVMGVPFYGRAFKGVSGGNGGQYSSHSTPGEDPYPSTDYWLVGCEECVRDKDPRIASYRQLEQMLQGNYGYQRLWNDKTKTPYLYHAQNGLFVTYDDAESFKYKAKYIKQQQLGGVMFWHLGQDNRNGDLLAALDRYFNAADYDDSQLDMGTGLRYTGVGPGNLPIMTAPAYVPGTTYAQGALVSYQGYVWQTKWGYITSAPGSDSAWLKVGRVA
B2: Inorganic pyrophosphatase, P0A7A9 (parent)
chain: MSLLNVPAGKDLPEDIYVVIEIPANADPIKYEIDKESGALFVDRFMSTAMFYPCNYGYINHTLSLDGDPVDVLVPTPYPLQPGSVIRCRPVGVLKMTDEAGEDAKLVAVPHSKLSKEYDHIKDVNDLPELLKAQIAHFFEHYKDLEKGKWVKVEGWENAEAAKAEIVASFERAKNK
B3: Persulfide dioxygenase ETHE1, mitochondrial, O95571 (parent)
chain: MAEAVLRVARRQLSQRGGSGAPILLRQMFEPVSCTFTYLLGDRESREAVLIDPVLETAPRDAQLIKELGLRLLYAVNTHCHADHITGSGLLRSLLPGCQSVISRLSGAQADLHIEDGDSIRFGRFALETRASPGHTPGCVTFVLNDHSMAFTGDALLIRGCGRTDFQQGCAKTLYHSVHEKIFTLPGDCLIYPAHDYHGFTVSTVEEERTLNPRLTLSCEEFVKIMGNLNLPKPQQIDFAVPANMRCGVQTPTA
B4: L-asparaginase 2, P00805 (parent)
chain: MEFFKKTALAALVMGFSGAALALPNITILATGGTIAGGGDSATKSNYTVGKVGVENLVNAVPQLKDIANVKGEQVVNIGSQDMNDNVWLTLAKKINTDCDKTDGFVITHGTDTMEETAYFLDLTVKCDKPVVMVGAMRPSTSMSADGPFNLYNAVVTAADKASANRGVLVVMNDTVLDGRDVTKTNTTDVATFKSVNYGPLGYIHNGKIDYQRTPARKHTSDTPFDVSKLNELPKVGIVYNYANASDLPAKALVDAGYDGIVSAGVGNGNLYKSVFDTLATAAKTGTAVVRSSRVPTGATTQDAEVDDAKYGFVASGTLNPQKARVLLQLALTQTKDPQQIQQIFNQY
B5: Dihydrofolate reductase type 2, P00383 (parent)
chain: MERSSNEVSNPVAGNFVFPSNATFGMGDRVRKKSGAAWQGQIVGWYCTNLTPEGYAVESEAHPGSVQIYPVAALERIN
B6: Guanyl-specific ribonuclease T1, P00651 (parent)
chain: MMYSKLLTLTTLLLPTALALPSLVERACDYTCGSNCYSSSDVSTAQAAGYQLHEDGETVGSNSYPHKYNNYEGFDFSVSSPYYEWPILSSGDVYSGGSPGADRVVFNENNQLAGVITHTGASGNNFVECT

The variants in the first data set derive from B1. To be noted: Serratia marcescens; pH 8; Thermal; CD; sodium phosphate 20 mM; reversible: No; structure 1E6N; whole UniProt chain shown.
For orientation: Tm means the temperature at the midpoint of the melting transition. With MSTRKAVIGYYFIPTNQINNYTETDTSVVPFPVSNITPAKAKQLTHINFSFLDINSNLECAWDPATNDAKARDVVNRLTALKAHNPSLRIMFSIGGWYYSNDLGVSHANYVNAVKTPASRAKFAQSCVRIMKDYGFDGVDIDWEYPQAAEVDGFIAALQEIRTLLNQQTITDGRQALPYQLTIAGAGAAFFLSRYYSKLAQIVAPLDYINLMTYDLAGPWEKVTNHQAALFGDPAGPTFYNALREANLGWSWEELTRAFPSPFSLTVDAAVQQHLMMEGVPSAKIVMGVPFYGRAFKGVSGGNGGQYSSHSTPGEDPYPSTDYWLVGCEECVRDKDPRIASYRQLEQMLQGNYGYQRLWNDKTKTPYLYHAQNGLFVTYDDAESFKYKAKYIKQQQLGGVMFWHLGQDNRNGDLLAALDRYFNAADYDDSQLDMGTGLRYTGVGPGNLPIMTAPAYVPGTTYAQGALVSYQGYVWQTKWGYITSAPGSDSAWLKVGRVA [G188A A234P], the Tm is 64.1 °C and the “change of melting temperature, mutant - wild type (higher = more stable)” value (“change of melting temperature, mutant” for short) worked out at 4.2 °C.

In the next data set the parent is B2. To be noted: Escherichia coli (strain K12); pH 7; Thermal; CD; HEPES 20 mM; MgCl2 5 mM; structure 1FAJ; whole UniProt chain shown.
For the variant MSLLNVPAGKDLPEDIYVVIEIPANANPIKYEIDKESGALFVDRFMSTAMFYPCNYGYINHTLSLDGDPVDVLVPTPYPLQPGSVIRCRPVGVLKMTDEAGEDAKLVAVPHSKLSKEYDHIKDVNDLPELLKAQIAHFFEHYKDLEKGKWVKVEGWENAEAAKAEIVASFERAKNK [D27N], the Tm amounted to 83 °C.

The data set is the same for the next values; noted with them: Escherichia coli (strain K12); pH 7; Thermal; CD; HEPES 20 mM; structure 1FAJ; whole UniProt chain shown.
On to MSLLNVPAGKDLPEDIYVVIEIPANANPIKYEIDKESGALFVDRFMSTAMFYPCNYGYINHTLSLDGDPVDVLVPTPYPLQPGSVIRCRPVGVLKMTDEAGEDAKLVAVPHSKLSKEYDHIKDVNDLPELLKAQIAHFFEHYKDLEKGKWVKVEGWENAEAAKAEIVASFERAKNK [D27N], for which the Tm was found to be 58 °C.

The variants in the next data set derive from B3. To be noted: Homo sapiens; pH 7.5; Thermal; CD; Tris-HCl 50mM; NaCl 150mM; transition: 2; structure 4CHL; whole UniProt chain shown.
Turning to MAEAVLRVARRQLSQRGGSGAPILLRQMFEPVSCTFTYLLGDRESREAVLIDPVLETAPRDAQLIKELGLRLLYAVNTHCHADHITGSGLLRSLLPGCQSVISRLSGAQADLHIEDGDSIRFGRFALETRASPGHTPGCVTFVLNDHSMAFTGDALLIRGCGQTDFQQGCAKTLYHSVHEKIFTLPGDCLIYPAHDYHGFTVSTVEEERTLNPRLTLSCEEFVKIMGNLNLPKPQQIDFAVPANMRCGVQTPTA [R163Q], the Tm was 55 °C and the “change of melting temperature, mutant” value is -7 °C.

With MAEAVLRVARRQLSQRGGSGAPILLRQMFEPVSCTFTYLLGDRESREAVLIDPVLETAPRDAQLIKELGLRLLYAVNTHCHADHITGSGLLRSLLPGCQSVISRLSGAQADLHIEDGDSIRFGRFALETRASPGHTPGCVTFVLNDHSMAFTGDALLIRGCGWTDFQQGCAKTLYHSVHEKIFTLPGDCLIYPAHDYHGFTVSTVEEERTLNPRLTLSCEEFVKIMGNLNLPKPQQIDFAVPANMRCGVQTPTA [R163W], the Tm stood at 52 °C and the “change of melting temperature, mutant” value is -10 °C.

In the next data set the parent is B4. As to conditions: Escherichia coli (strain K12); pH 7.4; 25 °C; Urea; Fluorescence; Tris-HCl 50 mM; structure 3ECA; whole UniProt chain shown.
Take MEFFKKTALAALVMGFSGAALALPNITILATGGTIAGGGDSATKSNYTVGKVGVENLVNAVPQLKDIANVKGEQVVNIGSQDMNDNVWLTLAKKINTDCDKTDGFVITHGTDTMEETAYFLDLTVKCDKPVVMVGAMRPSASMSADGPFNLYNAVVTAADKASANRGVLVVMNDTVLDGRDVTKTNTTDVATFKSVNYGPLGYIHNGKIDYQRTPARKHTSDTPFDVSKLNELPKVGIVYNYANASDLPAKALVDAGYDGIVSAGVGNGNLYKSVFDTLATAAKTGTAVVRSSRVPTGATTQDAEVDDAKYGFVASGTLNPQKARVLLQLALTQTKDPQQIQQIFNQY [T141A]: the unfolding free energy stood at 48 kJ/mol. On the same count and under the same terms, for MEFFKKTALAALVMGFSGAALALPNITILATGGAIAGGGDSATKSNYTVGKVGVENLVNAVPQLKDIANVKGEQVVNIGSQDMNDNVWLTLAKKINTDCDKTDGFVITHGTDTMEETAYFLDLTVKCDKPVVMVGAMRPSTSMSADGPFNLYNAVVTAADKASANRGVLVVMNDTVLDGRDVTKTNTTDVATFKSVNYGPLGYIHNGKIDYQRTPARKHTSDTPFDVSKLNELPKVGIVYNYANASDLPAKALVDAGYDGIVSAGVGNGNLYKSVFDTLATAAKTGTAVVRSSRVPTGATTQDAEVDDAKYGFVASGTLNPQKARVLLQLALTQTKDPQQIQQIFNQY [T34A] the value was 48 kJ/mol. On the same count and under the same terms, the figure for MEFFKKTALAALVMGFSGAALALPNITILATGGSIAGGGDSATKSNYTVGKVGVENLVNAVPQLKDIANVKGEQVVNIGSQDMNDNVWLTLAKKINTDCDKTDGFVITHGTDTMEETAYFLDLTVKCDKPVVMVGAMRPSTSMSADGPFNLYNAVVTAADKASANRGVLVVMNDTVLDGRDVTKTNTTDVATFKSVNYGPLGYIHNGKIDYQRTPARKHTSDTPFDVSKLNELPKVGIVYNYANASDLPAKALVDAGYDGIVSAGVGNGNLYKSVFDTLATAAKTGTAVVRSSRVPTGATTQDAEVDDAKYGFVASGTLNPQKARVLLQLALTQTKDPQQIQQIFNQY [T34S] is 47 kJ/mol; for MEFFKKTALAALVMGFSGAALALPNITILATGGTIAGGGDSATKSNYTVGKVGVENLVNAVPQLKDIANVKGEQVVNIGSQDMNDNVWLTLAKKINTDCDKTDGFVITHGTDTMEETAYFLDLTVKCDKPVVMVGAMRPSTSMAADGPFNLYNAVVTAADKASANRGVLVVMNDTVLDGRDVTKTNTTDVATFKSVNYGPLGYIHNGKIDYQRTPARKHTSDTPFDVSKLNELPKVGIVYNYANASDLPAKALVDAGYDGIVSAGVGNGNLYKSVFDTLATAAKTGTAVVRSSRVPTGATTQDAEVDDAKYGFVASGTLNPQKARVLLQLALTQTKDPQQIQQIFNQY [S144A] it is 52 kJ/mol.

The next data set covers variants of B5. To be noted: Escherichia coli; pH 5; 22 °C; GdnHCl; CD; phosphate 10 mM; structure 1VIE; whole UniProt chain shown.
MERSSNEVSNPVAGNFVFPSNATFGMGDRVRKKSGAAWQGQIVGFYCTNLTPEGYAVESEAHPGSVQIYPVAALERIN [W45F]: the unfolding free energy is 56.9 kJ/mol and 53.1 kJ/mol. On the same count and under the same terms, for MERSSNEVSNPVAGNFVFPSNATFGMGDRVRKKSGAAFQGQIVGWYCTNLTPEGYAVESEAHPGSVQIYPVAALERIN [W38F] the value was 64 kJ/mol and 65.3 kJ/mol.

Another data set covers variants of B6. To be noted: Aspergillus oryzae (strain ATCC 42149 / RIB 40); pH 7; Thermal; Absorbance; Sodium cacodylate 10 mM; reversible: yes; structure 1RN1; whole UniProt chain shown.
As to MMYSKLLTLTTLLLPTALALPSLVERACDYTCGSNCYSSSDVSTAQAAGYQLHEDGETVGSNSYPHKYNNWEGFDFSVSSPYYEWPILSSGDVYSGGSPGADRVVFNENNQLAGVITHTGASGNNFVECT [Y71W], the midpoint of thermal melting (Tm) came out at 56 °C and the “change of melting temperature, mutant” value is -1.6 °C. Taken in the same sequence, the figures for MMYSKLLTLTTLLLPTALALPSLVERACDYTCGSNCYSSSDVSTAQAAGYQLHEDGETVGSNSYPHKYNNWEGFDFSVSSPYYEYPILSSGDVYSGGSPGADRVVFNENNQLAGVITHTGASGNNFVECT [Y71W W85Y] were 53.1 °C and -4.5 °C.

With MMYSKLLTLTTLLLPTALALPSLVERACDYTCGSNCYSSSDVSTAQAAGYQLHEDGETVGSNSYPHKYNNYEGFDFSVSSPYYEYPILSSGDVYSGGSPGADRVVFNENNQLAGVITHTGASGNNFVECT [W85Y], the Tm came out at 53.4 °C and the “change of melting temperature, mutant” value is -4.2 °C.

The data set is the same for the next values; noted with them: Aspergillus oryzae (strain ATCC 42149 / RIB 40); pH 7; 48.6 °C; Thermal; Fluorescence; MOPS 30 mM; structure 1RN1; whole UniProt chain shown.
For the variant MMYSKLLTLTTLLLPTALALPSLVERACDYTCGSNCYSSSDVSTAQAAGYKLHEDGETVGSNSYPHKYNNYEGFDFSVSSPYYAWPILSSGDVYSGGSPGADRVVFNENNQLAGVITHTGASGNNFVECT [Q51K E84A], the “ddG of mutation (higher = less stable)” value is -0.251 kJ/mol.

The same data set, now with this note: Aspergillus oryzae (strain ATCC 42149 / RIB 40); pH 7; Thermal; Fluorescence; MOPS 30 mM; structure 1RN1; whole UniProt chain shown.
As to MMYSKLLTLTTLLLPTALALPSLVERACDYTCGSNCYSSSDVSTAQAAGYKLHEDGETVGSNSYPHKYNNYEGFDFSVSSPYYAWPILSSGDVYSGGSPGADRVVFNENNQLAGVITHTGASGNNFVECT [Q51K E84A], the Tm came out at 48.8 °C; the “change of melting temperature, mutant” value was -0.5 °C; the “unfolding enthalpy (van 't Hoff)” value worked out at 389 kJ/mol.

Still in this data set, the particulars now being: Aspergillus oryzae (strain ATCC 42149 / RIB 40); pH 7; Thermal; Absorbance; Sodium cacodylate-D2O 100 mM; reversible: yes; structure 1RN1; whole UniProt chain shown.
Regarding MMYSKLLTLTTLLLPTALALPSLVERACDYTCGSNCYSSSDVSTAQAAGYQLHEDGETVGSNSYPHKYNNYEGFDFSVSSPYYEYPILSSGDVYSGGSPGADRVVFNENNQLAGVITHTGASGNNFVECT [W85Y], the Tm was found to be 65 °C and the “change of melting temperature, mutant” value amounted to 20 °C.
